Article PMC10397247

T1: O15-bP
T1 chain: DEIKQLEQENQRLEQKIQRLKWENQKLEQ

T2: O16-bP
T2 chain: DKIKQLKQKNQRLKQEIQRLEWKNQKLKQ

T3: O2-bP
T3 chain: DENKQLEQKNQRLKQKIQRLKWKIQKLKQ

T4: O3-bP
T4 chain: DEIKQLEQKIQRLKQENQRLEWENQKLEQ

T5: O4-bP
T5 chain: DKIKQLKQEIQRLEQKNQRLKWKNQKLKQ

T6: O5-bP
T6 chain: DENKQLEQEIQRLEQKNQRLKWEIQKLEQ

T7: O6-bP
T7 chain: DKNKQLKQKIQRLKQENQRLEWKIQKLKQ

T8: O7-bP
T8 chain: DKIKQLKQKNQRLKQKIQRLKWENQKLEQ

T9: O8-bP
T9 chain: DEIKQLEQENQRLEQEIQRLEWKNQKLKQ

T10: O9-bP
T10 chain: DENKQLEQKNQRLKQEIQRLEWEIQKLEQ

T11: O16
T11 chain: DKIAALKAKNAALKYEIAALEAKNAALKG

T12: O2
T12 chain: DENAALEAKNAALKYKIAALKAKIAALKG

T13: O3
T13 chain: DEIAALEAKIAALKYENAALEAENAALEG

T14: O4
T14 chain: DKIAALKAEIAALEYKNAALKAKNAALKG

T15: O5
T15 chain: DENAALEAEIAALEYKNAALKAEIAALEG

T16: O6
T16 chain: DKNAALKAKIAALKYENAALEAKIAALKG

T17: O7
T17 chain: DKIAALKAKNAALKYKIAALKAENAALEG

T18: O8
T18 chain: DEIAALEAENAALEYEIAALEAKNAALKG

T19: O9
T19 chain: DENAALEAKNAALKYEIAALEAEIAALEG

T20: O15
T20 chain: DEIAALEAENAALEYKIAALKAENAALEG


What was measured:
Assay in all cases: two-hybrid library CCNG1;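 also: natural log of median RNA to DNA barcode read ratio; higher means stronger binding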
O15-bP = molecular target: T1, O15-bP
O16-bP = molecular target: T2, O16-bP
O2-bP = molecular target: T3, O2-bP
O3-bP = molecular target: T4, O3-bP
O4-bP = molecular target: T5, O4-bP
O5-bP = molecular target: T6, O5-bP
O6-bP = molecular target: T7, O6-bP
O7-bP = molecular target: T8, O7-bP
O8-bP = molecular target: T9, O8-bP
O9-bP = molecular target: T10, O9-bP
O16 = molecular target: T11, O16
O2 = molecular target: T12, O2
O3 = molecular target: T13, O3
O4 = molecular target: T14, O4
O5 = molecular target: T15, O5
O6 = molecular target: T16, O6
O7 = molecular target: T17, O7
O8 = molecular target: T18, O8
O9 = molecular target: T19, O9
O15 = molecular target: T20, O15

Binder	interaction score (O15-bP)	interaction score (O16-bP)	interaction score (O2-bP)	interaction score (O3-bP)	interaction score (O4-bP)	interaction score (O5-bP)	interaction score (O6-bP)	interaction score (O7-bP)	interaction score (O8-bP)	interaction score (O9-bP)	interaction score (O16)	interaction score (O2)	interaction score (O3)	interaction score (O4)	interaction score (O5)	interaction score (O6)	interaction score (O7)	interaction score (O8)	interaction score (O9)	interaction score (O15)
DEIKQLEQENQRLEQKIQRLKWENQKLEQ [O15-bP]	-0.0595	1.51	-1.39	-0.872	-1.2	-0.178	-0.729	-0.235	-0.223	-1.06										
DKIAALKAKNAALKYEIAALEAKNAALKG [O16]											-2.69	-2.29	-1.85	-1.89	-1.91	-1.46	-1.81	-0.596	-2.26	
DEIAALEAENAALEYKIAALKAENAALEG [O15]											1.41	-2.21	-2.17	-1.8	-1.45	-2.48	-0.707	-1.73	-2.28	-1.57
